The values that follow come from PMC12946210.

The series deals with FBH1 (F-box helicase 1, isoform 4);SKP1;CUL1;RBX1 (human;human;human;human, UniProt Q2TAK1;P63208;Q13616;P62877 1-969;1-163;1-776;1-108, |||). In words: EMSA. Background: A gel shift assay detects complexes by their altered migration in electrophoresis.

B1: Lag gap fork (mixed)
DNA 1: CTCAGGACTCAGTTCGTCAGCCCTTGACAGCGATGGAAGC
DNA 2: CGAAGGTAGCGACAGTTCCCCTGACGAACTGAGTCCTGAG
DNA 3: GCTTCCATCGCTCTCAAG
DNA 4: TCGCTACCTTCG
For the molecule B1, the binding result is recorded as “binds”.
